Here are results for one variant from paper PMC7267773, “CCDC61/VFL3 Is a Paralog of SAS6 and Promotes Ciliary Functions” (Structure(London, England:1993), 2020).

Sequences and labels used below:
B1: N-terminal head domain of human CCDC61 (hCCDC61^1-143) [human] / itself (parent)
chain: GSMDQPAGLQVDYVFRGVEHAVRVMVSGQVLELEVEDRMTADQWRGEFDAGFIEDLTHKTGNFKQFNIFCHMLESALTQSSESVTLDLLTYTDLESLRNRKMGGRPGSLAPRSAQLNSKRYLILIYSVEFDRIHYPLPLPYQGKP

The variants in this assay derive from B1. The assay can be described thus: analytical ultracentrifugation (AUC). The following applies: with itself.
On to GSMDQPAGLQVDYVFRGVEHAVRVMVSGQVLELEVEDRMTADQWRGEFDAGFIEDLTHKTGNFKQFNIFCHMLESALTQSSESVTLDLLTYTDLESLRNRKMGGRPGSLAPRSAQLNSKRYLILIYSVEEARIHYPLPLPYQGKP [chain 1 F130E D131A], for which the screen value stood at 16 kDa.
